These results are taken from the supplement of paper PMC9112550, “Optimization of the antimicrobial peptide Bac7 by deep mutational scanning” (BMC Biology, 2022).

This data set has as its system Escherichia coli TOP10. Kind of data set: shrunken log2 fold change of peptide-encoding DNA abundance (4.5 h post-induction vs induction); higher = less antimicrobial activity (less host growth inhibition). Particulars: time post-induction: 4.5 h; library: site-saturation at positions 5, 18, 19, 20.
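Note: peptides expressed intracellularly from a pBAD plasmid library in pooled LB shake-flask culture, induced with 0.3% L-arabinose, DNA abundance read by NGS, three biological replicates, DESeq2 with apeglm shrinkage.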

On to RRIRWRPPRLPRPRPRPNFYPRP, for which the “shrunken log2 fold change” value was -0.232. Next, RRIRARPPRLPRPRPRPLGWPRP: 0.951. Next, RRIRIRPPRLPRPRPRPHPDPRP: -0.45. Next, RRIRFRPPRLPRPRPRPCHIPRP: -0.11.

On to RRIRARPPRLPRPRPRPKCMPRP, for which the “shrunken log2 fold change” value was 0.0351. Next, RRIRTRPPRLPRPRPRPSWHPRP: -0.23; RRIRLRPPRLPRPRPRPCFKPRP: -0.315; RRIRWRPPRLPRPRPRPETHPRP: 0.756. Next, RRIRKRPPRLPRPRPRPNNSPRP: -0.371; RRIRGRPPRLPRPRPRPPMIPRP: -0.0528. Next, RRIRERPPRLPRPRPRPSKSPRP: -0.688; RRIRWRPPRLPRPRPRPNENPRP: -0.0342; RRIRNRPPRLPRPRPRPYQLPRP: 0.327. With RRIRERPPRLPRPRPRPIVAPRP, the “shrunken log2 fold change” value was 0.33.

Consider RRIRHRPPRLPRPRPRPPMAPRP, for which the “shrunken log2 fold change” value is 0.197.

As to RRIRFRPPRLPRPRPRPLAVPRP, the “shrunken log2 fold change” value came to 0.249. Next, RRIRYRPPRLPRPRPRPAYWPRP: -0.029. Next, RRIRGRPPRLPRPRPRPPFCPRP: 0.592; RRIRSRPPRLPRPRPRPPCNPRP: -0.21. Regarding RRIRWRPPRLPRPRPRPDASPRP, the “shrunken log2 fold change” value turned out to be 0.364. Next, RRIRVRPPRLPRPRPRPRCIPRP: -0.661; RRIRFRPPRLPRPRPRPVLYPRP: -0.457; RRIRFRPPRLPRPRPRPTLNPRP: -0.254. Next, RRIRSRPPRLPRPRPRPYDFPRP: -0.195; RRIRFRPPRLPRPRPRPEMAPRP: 0.635; RRIRERPPRLPRPRPRPVQLPRP: -0.329. Next, RRIRPRPPRLPRPRPRPYEWPRP: -0.874; RRIRWRPPRLPRPRPRPNCGPRP: 0.192; RRIRPRPPRLPRPRPRPGAKPRP: 0.265.

With RRIRNRPPRLPRPRPRPDHYPRP, the “shrunken log2 fold change” value was -0.202. Next, RRIRIRPPRLPRPRPRPEDSPRP: -0.0125; RRIRFRPPRLPRPRPRPFSHPRP: -1.36; RRIRARPPRLPRPRPRPWGRPRP: 0.198.

RRIRVRPPRLPRPRPRPFFTPRP: the “shrunken log2 fold change” value came out at 0.00087. Next, RRIRKRPPRLPRPRPRPCTNPRP: -0.0404; RRIRVRPPRLPRPRPRPDVYPRP: -0.0411; RRIRWRPPRLPRPRPRPGVNPRP: 0.0981. Next, RRIRCRPPRLPRPRPRPLLEPRP: 0.234. Next, RRIRSRPPRLPRPRPRPSVNPRP: -0.119; RRIRVRPPRLPRPRPRPHLVPRP: -0.133. Regarding RRIRNRPPRLPRPRPRPTVDPRP, the “shrunken log2 fold change” value was 0.0566. On to RRIRERPPRLPRPRPRPGLYPRP, for which the “shrunken log2 fold change” value was -0.233. Next, RRIRGRPPRLPRPRPRPPLPPRP: 1.01.

For the sequence RRIRLRPPRLPRPRPRPQAAPRP, the “shrunken log2 fold change” value turned out to be 0.0357. Next, RRIRCRPPRLPRPRPRPMQTPRP: 1.52; RRIRYRPPRLPRPRPRPNGFPRP: -0.219; RRIRLRPPRLPRPRPRPPGKPRP: -0.0183. Next, RRIRSRPPRLPRPRPRPNNNPRP: -0.604; RRIRRRPPRLPRPRPRPPIRPRP: 2.1; RRIRVRPPRLPRPRPRPLCWPRP: 0.00832. Take RRIRLRPPRLPRPRPRPNKMPRP: the “shrunken log2 fold change” value was -0.158. For RRIRTRPPRLPRPRPRPMPVPRP, the “shrunken log2 fold change” value was found to be 0.0572. Next, RRIRWRPPRLPRPRPRPVPVPRP: 0.271; RRIRRRPPRLPRPRPRPEIYPRP: 0.0166.

With RRIRNRPPRLPRPRPRPHCWPRP, the “shrunken log2 fold change” value worked out at 0.0498. Next, RRIRLRPPRLPRPRPRPSSNPRP: -0.211. With RRIRIRPPRLPRPRPRPDWKPRP, the “shrunken log2 fold change” value was determined as 0.036. Next, RRIRPRPPRLPRPRPRPRKIPRP: -0.0764; RRIRNRPPRLPRPRPRPYRIPRP: -0.115; RRIRQRPPRLPRPRPRPHSIPRP: 0.0425. Next, RRIRKRPPRLPRPRPRPNAIPRP: 0.0998. Next, RRIRVRPPRLPRPRPRPDPKPRP: 0.203; RRIRRRPPRLPRPRPRPYLCPRP: -0.404.

Consider RRIRPRPPRLPRPRPRPITFPRP, for which the “shrunken log2 fold change” value was -0.112.

Take RRIRLRPPRLPRPRPRPPTMPRP: the “shrunken log2 fold change” value came out at 0.266. Next, RRIRNRPPRLPRPRPRPIFRPRP: -0.0067; RRIRSRPPRLPRPRPRPHEDPRP: 0.132; RRIRVRPPRLPRPRPRPLQWPRP: 0.209. Next, RRIRHRPPRLPRPRPRPNQVPRP: 0.0339; RRIRCRPPRLPRPRPRPWYPPRP: -0.742; RRIRGRPPRLPRPRPRPFIFPRP: 0.516. Next, RRIRPRPPRLPRPRPRPKFQPRP: 0.103. For the sequence RRIRSRPPRLPRPRPRPKWGPRP, the “shrunken log2 fold change” value was determined as 0.228.

As to RRIRYRPPRLPRPRPRPLNFPRP, the “shrunken log2 fold change” value is -1.01. Next, RRIRVRPPRLPRPRPRPPMQPRP: 0.152. Next, RRIRIRPPRLPRPRPRPSTHPRP: -1.02; RRIRQRPPRLPRPRPRPNDEPRP: 0.0763. Next, RRIRVRPPRLPRPRPRPEMKPRP: -0.184; RRIRDRPPRLPRPRPRPRHWPRP: 0.548.

As for RRIRKRPPRLPRPRPRPWGIPRP, the “shrunken log2 fold change” value was -0.168. Next, RRIRFRPPRLPRPRPRPWFTPRP: -0.574.

As to RRIRARPPRLPRPRPRPYTNPRP, the “shrunken log2 fold change” value was -1.06. Next, RRIRPRPPRLPRPRPRPCYFPRP: -0.0997. Next, RRIRLRPPRLPRPRPRPTMEPRP: 0.274; RRIRHRPPRLPRPRPRPNQLPRP: -0.154. Next, RRIRIRPPRLPRPRPRPTVIPRP: -0.108; RRIRQRPPRLPRPRPRPPIDPRP: 0.00417; RRIRFRPPRLPRPRPRPNVSPRP: -0.0196. In the case of RRIRKRPPRLPRPRPRPIVCPRP, the “shrunken log2 fold change” value is -0.00674. On to RRIRWRPPRLPRPRPRPCSPPRP, for which the “shrunken log2 fold change” value was -0.106.

RRIRFRPPRLPRPRPRPAFRPRP: the “shrunken log2 fold change” value stood at 0.132. Next, RRIRNRPPRLPRPRPRPSKQPRP: 0.00527.

For the sequence RRIRGRPPRLPRPRPRPPGHPRP, the “shrunken log2 fold change” value was 0.772. In the case of RRIRIRPPRLPRPRPRPHSFPRP, the “shrunken log2 fold change” value was -0.643. Next, RRIRCRPPRLPRPRPRPPVSPRP: 0.134. Next, RRIRPRPPRLPRPRPRPASYPRP: -0.212; RRIRIRPPRLPRPRPRPLLHPRP: -0.221; RRIRNRPPRLPRPRPRPAGEPRP: 0.507. As to RRIRWRPPRLPRPRPRPGDAPRP, the “shrunken log2 fold change” value is 0.418.

RRIRYRPPRLPRPRPRPVLTPRP: the “shrunken log2 fold change” value was -0.0151.

RRIRQRPPRLPRPRPRPCWSPRP: the “shrunken log2 fold change” value was -0.08.

As for RRIRCRPPRLPRPRPRPPLPPRP, the “shrunken log2 fold change” value was determined as 0.539. Next, RRIRARPPRLPRPRPRPFRWPRP: -0.0369; RRIRARPPRLPRPRPRPHHHPRP: -0.469; RRIRSRPPRLPRPRPRPLPNPRP: -0.215.

As to RRIRMRPPRLPRPRPRPINRPRP, the “shrunken log2 fold change” value was -0.0561.

RRIRARPPRLPRPRPRPYPWPRP: the “shrunken log2 fold change” value was -0.32.

In the case of RRIRERPPRLPRPRPRPCSDPRP, the “shrunken log2 fold change” value is -0.5. Next, RRIRMRPPRLPRPRPRPVYIPRP: -0.0842; RRIRTRPPRLPRPRPRPAPNPRP: 0.0436. Next, RRIRPRPPRLPRPRPRPCFAPRP: 0.0019; RRIRRRPPRLPRPRPRPKHWPRP: 0.334; RRIRPRPPRLPRPRPRPLTQPRP: 0.0664. Next, RRIRNRPPRLPRPRPRPEKEPRP: -0.159. Turning to RRIRIRPPRLPRPRPRPVRQPRP, the “shrunken log2 fold change” value is -0.0328. As to RRIRMRPPRLPRPRPRPLIDPRP, the “shrunken log2 fold change” value turned out to be 0.356. Next, RRIRVRPPRLPRPRPRPPHGPRP: -0.317; RRIRRRPPRLPRPRPRPVYTPRP: 0.0292; RRIRMRPPRLPRPRPRPNTLPRP: -0.507. Consider RRIRFRPPRLPRPRPRPPNIPRP, for which the “shrunken log2 fold change” value was -0.185.

Regarding RRIRFRPPRLPRPRPRPICTPRP, the “shrunken log2 fold change” value was -0.218. Turning to RRIRARPPRLPRPRPRPIHMPRP, the “shrunken log2 fold change” value was 0.0203.

RRIRGRPPRLPRPRPRPDAWPRP: the “shrunken log2 fold change” value was 1.17.

On to RRIRYRPPRLPRPRPRPEMNPRP, for which the “shrunken log2 fold change” value is -0.0274. Next, RRIRERPPRLPRPRPRPQQDPRP: -0.108.
